{"source": "patent US20040234990A1", "about": "“Method of screening alzheimer's disease-associated gene” (priority 2001, published 2004)", "molecules": {"B1": {"name": "Protein A: human cDNA (Genbank AAH06223, SEQ ID NO: 4) encoding Protein A (SEQ ID NO: 1), function unknown (nucleic acid)", "DNA": "ATGTCGACGGCGGCGGTTCCGGAGCTGAAGCAGATCAGCCGGGTGGAGGCGATGCGCCTAGGGCCGGGCTGGAGCCACTCGTGCCACGCCATGCTGTACGCCGCCAACCCTGGGCAGCTCTTCGGCCGCATCCCCATGCGCTTCTCGGTGCTGATGCAGATGCGTTTCGACGGGCTGCTGGGCTTCCCCGGGGGCTTCGTGGACCGGCGCTTCTGGTCGCTGGAGGACGGCCTGAACCGGGTGCTGGGCCTGGGCCTGGGCTGCCTGCGCCTCACCGAGGCCGACTACCTGAGCTCGCACCTGACCGAGGGCCCACACCGCGTCGTGGCGCACCTGTACGCGCGGCAGCTGACGCTGGAGCAGCTGCACGCCGTGGAGATCAGCGCGGTGCACTCGCGCGACCACGGCCTGGAGGTGCTGGGCCTCGTGCGGGTCCCGCTGTACACCCAGAAGGACCGAGTCGGAGGCTTCCCCAACTTCCTGAGCAACGCCTTCGTGAGCACGGCTAAGTGCCAGCTCCTCTTTGCCCTCAAGGTGCTCAACATGATGCCCGAGGAGAAGCTGGTTGAGGCCCTGGCTGCAGCCACCGAGAAGCAGAAGAAGGCCCTGGAGAAGTTGCTCCCGGCCTCCTCT", "modifications": "Human"}}, "key": {"A5-9 cells": {"system": "A5-9 cells", "assay": "Puromycin sensitivity of the parent strain", "format": "cell-based, mouse", "description": "(§1) The DNA that controls the production of Aβ is investigated as follows. First, the DNA library is transfected to the cell line where the two recombinant gene constructs described above are introduced (hereinafter referred to as the parent strain). Thereafter, for example, when a drug resistant gene is used as the selection marker, a cell bearing the DNA to enhance the concentration of the corresponding drug and become resistant in the presence of the drug even at a high concentration is selected. […]\n(§2) The A5-9 cells or A5-9-PS1 cells described in EXAMPLE 4, to which the human hippocampus cDNA library was transfected through the infection with retrovirus, were cultured in the presence of puromycin of a high concentration (A5-9 cells, 25 μg/ml; A5-9-PS1 cells, 9 μg/ml). […] The concentrations of puromycin used were determined based on the respective minimum puromycin concentrations of 20 μg/ml and 5 μg/ml, at which the A5-9 cells and A5-9-PS1 cells as the parent strain were extinct. […] That is, Aβ was detected as follows. The Aβ secreted in a medium by incubation for 3 days (initial cell concentration of 2×10^5 cells/ml, medium of 3 ml) was immunoprecipitated by anti-Aβ monoclonal antibody 6E10 and the deposits were detected by high sensitive western blotting using anti-Aβ antibody. […]"}, "A5-9-PS1 cells": {"system": "A5-9-PS1 cells", "assay": "Puromycin sensitivity of the parent strain", "format": "cell-based, mouse", "description": "as §1, §2"}, "[1]": {"system": "HEK293 cells where APP and PS1 were overexpressed", "assay": "Aβ secreted into the medium by HEK293 cells transfected with cDNA in pcDNA3, assayed by ELISA", "format": "cell-based", "conditions": "for Fold increase in Aβ42 versus vector control: rate of increase compared to vector-alone control", "description": "From the clones selected in EXAMPLE 5 above to increase the production of Aβ, human hippocampus-derived cDNA was amplified by PCR using virus vector pMX sites as primers (which were identified to be sense strand primer, SEQ ID NO: 16; […] and antisense strand primer, SEQ ID NO: 17; […]). The cDNA obtained was ligated with vector pcDNA3 (Invitrogen, Inc.), which was transfected to 4×10^5 cells of HEK293 cells (Tomita S., et al., J. Biol. Chem. 273: 19304-19310, 1998; Tomita S., et al., J. Biol. Chem. 275: 13056-13060, 2000) where APP and PS1 were overexpressed. One day after, the medium was changed to a new medium followed by incubation for 24 hours. The amount of Aβ selected in the medium was assayed by ELISA (Asami-Odaka, A. et al., 34:10272, 1995). It was found so far that 3 kinds of human hippocampus-derived cDNAs increased the amount of Aβ produced (TABLE 2). One of them was identified to be identical with human cDNA (accession No. AAH06223) registered in Genbank. In the following procedures of the present invention, this cDNA was named gene A (SEQ ID NO: 4) and the protein encoding the cDNA was named Protein A (SEQ ID NO: 1). […] The one found to be a gene to control the production of Aβ was a protein, Herp (Kokame K. et al., J. Biol. Chem. 275: 3286, 2000; accession no. AB034989) (cDNA: SEQ ID NO: 5, protein: SEQ ID NO: 2), which was localized in the endoplasmic reticulum and its expression was induced by endoplasmic reticulum stress but its function was unknown. Further the other one found to be a gene to control the production of Aβ was cDNA (cDNA: SEQ ID NO: 6, protein: SEQ ID NO: 3) containing the 1-389 internal sequence from the N terminus of 5-lipoxygenase (accession no. XM 005818)."}, "[2]": {"conditions": "Aβ in medium after 24 hours incubation, mean of 2 samples, vector control value in parenthesis"}}}
{"molecule": "COc1ccc(C[C@H](N)C(=O)N[C@H]2[C@@H](O)[C@H](n3cnc4c(N(C)C)ncnc43)O[C@@H]2CO)cc1", "note": "[puromycin]", "values": [{"measurement": "minimum puromycin concentration at which the cells were extinct", "setting": "A5-9 cells", "value": 20, "unit": "µg/mL"}, {"measurement": "minimum puromycin concentration at which the cells were extinct", "setting": "A5-9-PS1 cells", "value": 5, "unit": "µg/mL"}]}
{"molecule": "B1", "values": [{"measurement": "Aβ40 Concentration [pM]", "setting": "[1]; [2]", "value": "378 ± 10 (232 ± 34) pM"}, {"measurement": "Aβ42 Concentration [pM]", "setting": "[1]; [2]", "value": "88 ± 22 (45 ± 2) pM"}, {"measurement": "Fold increase in Aβ42 versus vector control", "setting": "[1]; column beside the Aβ40 concentration", "value": 1.6}, {"measurement": "Fold increase in Aβ42 versus vector control", "setting": "[1]; column beside the Aβ42 concentration", "value": 2.0}]}
